The chains are these.
B1: Transcription factor SOX-11, residues 50 to 117; numbered along this chain, P35716 (parent)
chain: KRPMNAFMVWSKIERRKIMEQSPDMHNAEISKRLGKRWKMLKDSEKIPFIREAERLRLKHMADYPDYK

± gives the uncertainty stated by the source.

In this data set the parent is B1. In words: abundance fitness (aPCA) (normalised: wild type 0, dead -1); higher = more abundant; growth selection in yeast, the domain comes from the species named. The note with it: Homo sapiens.
With V9Q, the abundance fitness was -0.894 ± 0.25.

On to V9H, for which the abundance fitness is -0.402 ± 0.087.

For the variant V9W, the abundance fitness is -0.411 ± 0.19.

V9G: the abundance fitness was -0.687 ± 0.11.

Regarding V9S, the abundance fitness was -0.847 ± 0.079.

Turning to V9P, the abundance fitness was -0.891 ± 0.16.

Take V9L: the abundance fitness is 0.177 ± 0.054.

On to V9C, for which the abundance fitness was -0.448 ± 0.087.

As to V9Y, the abundance fitness is -0.558 ± 0.069.

Consider V9N, for which the abundance fitness was -0.734 ± 0.089.

In the case of V9D, the abundance fitness is -0.671 ± 0.12.

Consider V9I, for which the abundance fitness worked out at 0.037 ± 0.053.

On to V9A, for which the abundance fitness was -0.644 ± 0.12.

Turning to V9M, the abundance fitness is -0.61 ± 0.17.

Regarding V9R, the abundance fitness is -0.926 ± 0.14.

As for V9F, the abundance fitness was -0.63 ± 0.07.

Take Q21Y: the abundance fitness is -0.581 ± 0.077.

Regarding Q21L, the abundance fitness was -0.353 ± 0.064.

For Q21W, the abundance fitness was -0.313 ± 0.15.

As to Q21E, the abundance fitness was determined as 0.148 ± 0.13.

Turning to Q21M, the abundance fitness was -0.35 ± 0.11.

For the variant Q21G, the abundance fitness is -0.256 ± 0.057.

In the case of Q21N, the abundance fitness is -0.156 ± 0.056.

With Q21F, the abundance fitness is -0.661 ± 0.081.

Consider Q21K, for which the abundance fitness was -0.303 ± 0.21.

Take Q21I: the abundance fitness was -0.13 ± 0.056.

Take Q21H: the abundance fitness is -0.194 ± 0.062.

In the case of Q21S, the abundance fitness is -0.172 ± 0.047.

As to Q21V, the abundance fitness is -0.223 ± 0.055.

For Q21T, the abundance fitness was -0.13 ± 0.077.

With Q21P, the abundance fitness was -0.437 ± 0.13.

As to Q21D, the abundance fitness was -0.267 ± 0.067.

Take Q21R: the abundance fitness is -0.235 ± 0.068.

On to Q21C, for which the abundance fitness is -0.323 ± 0.055.

For D24V, the abundance fitness is -0.643 ± 0.085.

As for D24A, the abundance fitness was -0.093 ± 0.069.

For D24H, the abundance fitness is -0.26 ± 0.079.

For the variant D24K, the abundance fitness was -0.578 ± 0.23.

Turning to D24Y, the abundance fitness was -0.35 ± 0.062.

With D24C, the abundance fitness was -0.435 ± 0.074.

As for D24G, the abundance fitness was -0.105 ± 0.057.

Take D24Q: the abundance fitness is -0.147 ± 0.32.

For D24E, the abundance fitness is -0.164 ± 0.17.

D24T: the abundance fitness is -0.22 ± 0.08.

Regarding D24N, the abundance fitness was -0.128 ± 0.071.

As to D24I, the abundance fitness is -0.538 ± 0.09.

On to D24P, for which the abundance fitness was -0.836 ± 0.15.

For the variant D24R, the abundance fitness was -0.456 ± 0.091.

For D24M, the abundance fitness was -0.63 ± 0.32.

In the case of D24W, the abundance fitness was -0.337 ± 0.16.

As to D24F, the abundance fitness was -0.435 ± 0.066.

Turning to D24L, the abundance fitness was -0.507 ± 0.078.

Regarding S22Y, the abundance fitness was determined as 0.165 ± 0.046.

In the case of S22A, the abundance fitness is -0.061 ± 0.066.

As for S22T, the abundance fitness is -0.072 ± 0.064.

As for S22M, the abundance fitness was -0.302 ± 0.12.

In the case of S22Q, the abundance fitness is -0.09 ± 0.14.

For S22D, the abundance fitness is 0.042 ± 0.059.

For the variant S22P, the abundance fitness was -0.841 ± 0.16.

For S22R, the abundance fitness is -0.513 ± 0.091.

S22F: the abundance fitness stood at 0.118 ± 0.049.

S22L: the abundance fitness is -0.522 ± 0.076.

On to S22G, for which the abundance fitness is -0.587 ± 0.075.

With S22V, the abundance fitness is -0.442 ± 0.064.

On to S22W, for which the abundance fitness is -0.024 ± 0.1.

As to S22H, the abundance fitness turned out to be 0.052 ± 0.062.

Consider S22K, for which the abundance fitness was -0.352 ± 0.19.

For S22E, the abundance fitness was -0.112 ± 0.11.

On to S22I, for which the abundance fitness was -0.539 ± 0.066.

Consider K12L, for which the abundance fitness was -0.016 ± 0.074.

As for K12S, the abundance fitness was 0.074 ± 0.053.

K12W: the abundance fitness was -0.89 ± 0.32.

Regarding K12F, the abundance fitness is -0.232 ± 0.067.

Consider K12E, for which the abundance fitness came to 0.359 ± 0.14.

On to K12T, for which the abundance fitness was -0.119 ± 0.08.

In the case of K12I, the abundance fitness is -0.099 ± 0.059.

On to K12H, for which the abundance fitness is -0.006 ± 0.064.

As for K12C, the abundance fitness was -0.131 ± 0.07.

Turning to K12G, the abundance fitness was -0.2 ± 0.062.

Take K12Q: the abundance fitness stood at 0.007 ± 0.19.

K12V: the abundance fitness stood at 0.012 ± 0.05.

Turning to K12A, the abundance fitness was 0.175 ± 0.062.

In the case of K12P, the abundance fitness was -0.746 ± 0.18.

Consider K12Y, for which the abundance fitness was -0.448 ± 0.078.

Regarding K12N, the abundance fitness is 0.014 ± 0.064.

In the case of K12M, the abundance fitness is -0.043 ± 0.25.

Turning to P23E, the abundance fitness was -0.49 ± 0.19.

As to P23A, the abundance fitness was -0.391 ± 0.079.

As to P23S, the abundance fitness was -0.453 ± 0.058.

For P23W, the abundance fitness is -1.09 ± 0.24.

In the case of P23Q, the abundance fitness was -0.706 ± 0.24.

In the case of P23H, the abundance fitness is -0.791 ± 0.1.

For the variant P23L, the abundance fitness is -0.287 ± 0.068.

Regarding P23I, the abundance fitness was -0.869 ± 0.095.

P23R: the abundance fitness is -0.74 ± 0.091.

P23N: the abundance fitness was -0.843 ± 0.11.

Consider P23D, for which the abundance fitness was -0.739 ± 0.093.

As to P23Y, the abundance fitness was -0.665 ± 0.09.

As for P23G, the abundance fitness was -0.431 ± 0.064.

In the case of P23K, the abundance fitness was -1.28 ± 0.44.

As for P23M, the abundance fitness was -0.85 ± 0.24.

For the variant P23V, the abundance fitness was -0.598 ± 0.07.

For E20W, the abundance fitness is -0.577 ± 0.17.

Take E20S: the abundance fitness is -0.36 ± 0.063.

On to E20F, for which the abundance fitness was -0.496 ± 0.067.

For the variant E20L, the abundance fitness was -0.27 ± 0.079.

With E20R, the abundance fitness was -0.705 ± 0.12.

As for E20P, the abundance fitness was -0.812 ± 0.16.

Take E20Q: the abundance fitness was -0.83 ± 0.34.

Consider E20H, for which the abundance fitness was -0.319 ± 0.14.

On to E20M, for which the abundance fitness is -0.723 ± 0.28.

In the case of E20A, the abundance fitness is -0.348 ± 0.11.

With E20N, the abundance fitness was -0.236 ± 0.08.

Consider E20T, for which the abundance fitness was -0.185 ± 0.13.

As for E20I, the abundance fitness is -0.569 ± 0.085.

For E20Y, the abundance fitness is -0.781 ± 0.1.

Consider I18T, for which the abundance fitness was -0.884 ± 0.17.

I18H: the abundance fitness is -0.918 ± 0.17.

As to I18C, the abundance fitness is -0.714 ± 0.1.

On to I18F, for which the abundance fitness was -0.688 ± 0.1.

Consider I18R, for which the abundance fitness is -0.945 ± 0.12.

Regarding I18N, the abundance fitness was -0.625 ± 0.097.

For the variant I18P, the abundance fitness is -0.619 ± 0.21.

Regarding I18D, the abundance fitness was -0.741 ± 0.12.

Take I18K: the abundance fitness is -0.856 ± 0.29.

Take I18A: the abundance fitness was -0.521 ± 0.11.

Take I18Y: the abundance fitness is -0.34 ± 0.075.

In the case of I18E, the abundance fitness is -0.355 ± 0.17.

Regarding I18Q, the abundance fitness was -0.869 ± 0.33.

Regarding I18V, the abundance fitness was -0.307 ± 0.059.

With I18S, the abundance fitness was -0.732 ± 0.083.

Turning to I18G, the abundance fitness is -0.772 ± 0.075.

With I18W, the abundance fitness was -0.256 ± 0.11.

M25N: the abundance fitness is -0.418 ± 0.075.

Regarding M25Y, the abundance fitness is -0.793 ± 0.1.

Turning to M25Q, the abundance fitness is -0.782 ± 0.21.

Regarding M25K, the abundance fitness is -0.608 ± 0.18.

On to M25V, for which the abundance fitness is -0.278 ± 0.065.

Take M25F: the abundance fitness is -0.571 ± 0.084.

As for M25D, the abundance fitness is -0.717 ± 0.11.

Turning to M25C, the abundance fitness was -0.34 ± 0.058.

On to M25E, for which the abundance fitness was -0.739 ± 0.23.

Regarding M25G, the abundance fitness is -0.759 ± 0.071.

As for M25P, the abundance fitness was -0.892 ± 0.21.

Turning to M25A, the abundance fitness was -0.141 ± 0.072.

As to M25R, the abundance fitness is -0.546 ± 0.078.

As for M25W, the abundance fitness was -0.715 ± 0.12.

Consider M25S, for which the abundance fitness is -0.53 ± 0.057.

With M25H, the abundance fitness was -0.641 ± 0.11.

On to M25T, for which the abundance fitness is -0.317 ± 0.089.

In the case of W10S, the abundance fitness is -0.913 ± 0.1.

Consider W10I, for which the abundance fitness was -0.961 ± 0.099.

Turning to W10L, the abundance fitness is -0.819 ± 0.095.

For W10G, the abundance fitness is -0.797 ± 0.14.

For the variant W10F, the abundance fitness is -0.253 ± 0.054.

W10V: the abundance fitness was -0.872 ± 0.13.

On to W10T, for which the abundance fitness was -0.576 ± 0.097.

In the case of W10Q, the abundance fitness is -1.09 ± 0.33.

Regarding W10C, the abundance fitness is -1.01 ± 0.14.

Take W10M: the abundance fitness is -0.345 ± 0.14.

As for W10K, the abundance fitness was -0.627 ± 0.23.

On to W10D, for which the abundance fitness is -0.781 ± 0.14.

On to W10P, for which the abundance fitness is -0.589 ± 0.13.

Regarding W10A, the abundance fitness is -0.543 ± 0.12.

As to W10Y, the abundance fitness is -0.375 ± 0.065.

On to W10N, for which the abundance fitness was -0.594 ± 0.079.

Turning to W10H, the abundance fitness was -0.783 ± 0.11.

These data come from the Human Domainome abundance scans (Beltran et al. 2025).
